Measurements taken from publication PMC11775607 (Nucleic Acids Research, 2025).

Biological target: recombinant WBSCR16-GST fusion protein (mouse, UniProt Q9CYF5 35-461)
Assay: SPR

B1: recombinant MRPP3-His fusion protein (230–583 amino acids of MRPP3) (domain or fragment)
chain: LLLLEDIKKVITPSKKNYNDCIQGALLHQDVNTAWNLYQELLGHDIVPMLETLKAFFDFGKDIKDDNYSNKLLDILSYLRNNQLYPGESFAHSIKTWFESVPGKQWKGQFTTVRKSGQCSGCGKTIESIQLSPEEYECLKGKIMRDVIDGGDQYRKTTPQELKRFENFIKSRPPFDVVIDGLNVAKMFPKVRESQLLLNVVSQLAKRNLRLLVLGRKHMLRRSSQWSRDEMEEVQKQASCFFADDISEDDPFLLYATLHSGNHCRFITRDLMRDHKACLPDAKTQRLFFKWQQGHQLAIVNRFPGSKLTFQRILSYDTVVQTTGDSWHIPYDEDLVERCSCEVPTKWLCLHQKT
  Kd: 37 nM
